Measured values from the domain aggregation screens of Martell et al. (2025).

Experiment: soluble fraction after stress (log2 fold change); higher = more stays soluble; pooled small domains, quantitative proteomics
Conditions: stress: pH 4
Outline: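 Aggregation propensity is estimated from the fold change in each domain's soluble amount after acid stress. Pooled small-domain libraries were stressed at pH 4, and higher log2 values mean more stayed soluble.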

Going from “HMENMTLGQRIQALRKQHGLSQEGLGERLGVSRQAISRWEMDGAVPEVDKLIAMARLFGVSLNQLLGVE” to “HMENNIPANIKALIISYVNQNYPGAVIHSIERNSNGTYDVEIYYNNREYDLLFDAQGNFISGNVDDQ”, the “soluble fraction (log2)” value falls from -0.0911 to -0.366.

Compared with “HMENNIRLSVPDTESGQRIDSYLAEQIPGLTRSAVQNLLAEQAVTIAGKAVKKNYKLLGGEDILVQLPEVR”, “HMENPPISVVIPPSFRGQRIDKALGSLIGDYSRSKIQQWLQSGLVQSAGEPLLPKYTVLGNEQILIAVPS” is lower in “soluble fraction (log2)” value: ≥ 0.43 for the first, 0.03 for the second.

“HMENQGEDMRQQVKALVNADKTNITKLATATGYSRSTISMYLAGNYKGDVEAVERRLEEYMKTQG” and “HMENSYSVEDLALKAAISVDTIRYYQGLGLISPPQKNGRRAIYGNDHISRLEEIKKLAFEGFSLRQISLL” are within 0.2 log units of each other in “soluble fraction (log2)” value: 0.167 for the first, 0.22 for the second.

Compared with “HMENTIPSVIGRTLSDGVFLLESYGYVKGNVSEEFSEMPIGVIIRQFPGAGSAAEAGTRVDLVVSKGEEIV”, “HMENVALYIRLKSMASVYDDVHGYNIEWIKSMIGLSIDIEKLRTVLEDVSWITKVEEDVYSFSKNAKPFE” is lower in “soluble fraction (log2)” value: -0.316 for the first, -2.32 for the second.

Going from “HMENVQLRNFAIKATEAGIIKLSSDQRTFMWASNQKKLMTVPFDEHPYSAMAQFFKTDEGLAVFKSIEKKL” to “HMEPADALVAALVARGVSPSTARITVKQYPATRIQPQLEVFDYLVAQKDPKVSRNPPGFLLSAIRGEYA”, the “soluble fraction (log2)” value rises from -0.428 to 0.0562.

Compared with “HMEPAPELTPREQQVLARIALGMTDKAIAEELGVSHQTVRNHVARIYQKIKVHSRSQAVVWAREKGI”, “HMEPDEESVRLKEEILSRIDYWHTTMPYMGTRKLAAKLRTEGYAVGRKLVRTYMREMGIHAVYP” is lower in “soluble fraction (log2)” value: 0.0801 for the first, -0.293 for the second.

Compared with “HMEPELSVDMKPLDGLLLAIKKELQAAQMYTRLARASADAEQKMVFEQLANMEKGHKARLEDIYT”, “HMEPESTMIEISETLTNERLDRYLATKLPNVSRGGIQRLLREGNILVNGKKAKPTQHPVAGQKIEITWPNP” is higher in “soluble fraction (log2)” value: -0.348 for the first, -0.11 for the second.

First: HMEPEYIGELEKRIKKLKTHTYSSIDRLMKSISKKYKITTQVLHDDFKNKHNEIPDEWVKQF
Second: HMEPKIKQIVPNVVNYPVEDAKNVLVNSGLIVQIRGQGNIVYDQVPKGGAEVTRGTTVILDLNPPPGA
The “soluble fraction (log2)” value of the first is higher: 0.22 for the first, -0.768 for the second.

First: HMEPKQIEVPNLVGISSAAARQTLSALGLHAVVKDSIWSETERIDTVLEQNPAGGALIKPEGTVYLRVSR
Second: HMEPLIRTLEEQIAEKIKNYRKGTRVYDAEHVDRWISQLPEEERMVVLTETNRLLEQNYVDQAKLME
The “soluble fraction (log2)” value of the first is higher: 0.0547 for the first, -0.803 for the second.

Compared with “HMEPMLEIFDAKIDLADVLAVESGLVRLRGGAEVTSPRVDVDAGARLELDSGARLNVERLSY”, “HMEPMTDQQILEGFAEFKRQNPDLMNRPATQAIVNLTLPGGTPISFRSGAGAAALNQYLESIGMRAGP” is higher in “soluble fraction (log2)” value: -0.823 for the first, -0.0242 for the second.

Going from “HMEPPAPAPDIPYPSRVTVRREVDGWPHYYGTWTRTPPVLGYEGIWLVGVSLDGKVQFVPVDDVTIA” to “HMEPREEFTFADLRANGLNGTAAAAGRRAALGAALGIGYGNAKQFLRRLNHYGVTRSEWEAALADLDE”, the “soluble fraction (log2)” value rises from -0.555 to -0.0963.

Going from “HMEPSERYKALQSLLPDYAKRLKKKGVTRHQLFLEYRLTHPDGYARSRFGTYFQAYLALSHP” to “HMEPTLVVARDKDAKSPLVAKLMKELGVDAAPRVIVDDSVIGGAKLSHNHTEIDATYKTALINLYQAIT”, the “soluble fraction (log2)” value falls from ≥ 0.43 to -0.0179.

First: HMEPVFSDPARQTLYQEVMELPAKYRVPLYLYYYEGYKVDEVGELLGLNASTVQTRLARARAKLKIQL
Second: HMEQETVTVPDLVGKDVVAAQAELHEMGLSGKPDGTGTTVVSQFPVAGARVLKHTNVILYTED
The “soluble fraction (log2)” value of the first is lower: -0.17 for the first, 0.0839 for the second.

Compared with “HMEQFRENIVRIYMEIDDYENGAKFLEMGNNRDASFYELAGDFYKYFGENELANENYDLAISA”, “HMEQIPEEYKKIYSLITDIPININDIAKKSLLELREVSSKLTMLELDGKVVKLPGNMYIRGDL” is higher in “soluble fraction (log2)” value: -1.39 for the first, -0.0736 for the second.

First: HMEQKELAPLVPQEDGSVKLTNLAGYSMREVAAALEGGNLSLIPIGSGTSWKQDPAPGTVLQPGNTVTVYF
Second: HMEQPLSLKLANNAFSRFWGNANPAEKDTQPNNSDIAKWVIEQSGGKITQTMADKIAQIIRPEWAA
The “soluble fraction (log2)” value of the first is lower: -0.209 for the first, 0.25 for the second.

Compared with “HMEQSGDELKTWVDQAIAAYPEKVKEYQQGKKGLLALFIGEVMKRSKGTADPKKVNQLVTEALS”, “HMEQTMNDMLKLVDLLPQNQQDIVRMRFYENMSFKEIAESNQISINTALGRMRYAILNLRKYAAERNL” is lower in “soluble fraction (log2)” value: -0.211 for the first, -1.57 for the second.

First: HMEQVLDEEIIKSAVQKVIKDNPSAVSDYKAGKKTAFQFLIGKAMAELQGKGHPGKISELLEKE
Second: HMEQVQQIPIEELFPFKEHPFKVLDDEAMQRTVESVAQYGVLAPLIARPRPEGGYEIISGHRRQHAAELYR
The “soluble fraction (log2)” value of the first is higher: 0.257 for the first, -0.445 for the second.

First: HMEQWVSIEVEPGIRLDVALTEATQKSRSFIQNLIAEQRVLVNGQPKKANYKVRPGDHVELNYPEPT
Second: HMEREKTYLMPDLIGRKAERVVPRLQASGFKVEDIRHVYYPGLEKGVIVRQSPPGGYPIQKRNLINLEVS
The “soluble fraction (log2)” value of the first is lower: -0.415 for the first, 0.0984 for the second.

Going from “HMERLKKYLDDVRTFLPGTNPKKVDEILREIESHVLERAEREHGEVNDNAVAMSIKEYGSPEEVAARYYEG” to “HMERLSNQVYAILKEMIADYRFNPGARINVEQIAKEVGASRTPVWEAVHRLVQEGLLENIPNRGVFML”, the “soluble fraction (log2)” value falls from -0.29 to -1.11.

Compared with “HMERNAEDFAAKYQEIYQDMFRFALYTLKNRQEAEDVVSETVLDAWKGIEGLKNESAFSAWMFRILVNK”, “HMESADEESNALMYDGLLAMRGKRYEVALEFFDALVKHDPDFAEGWNKRATVLYLLGRYERSIADIKQVLA” is higher in “soluble fraction (log2)” value: -0.325 for the first, -0.0176 for the second.

Compared with “HMESAEQTGEELAARVNVLQTVSQALARELGREAAVEELADKMKMTVDEVKDIMKMAMDAMSM”, “HMESAESRVDLIGMIGEAITDLRPAGTAQFGEERIDVVSESEWITEGSTVKVVSAEGYRHVVRVME” is higher in “soluble fraction (log2)” value: -1.59 for the first, -1.01 for the second.

Compared with “HMESENANVNRAMLTGIASMHAGQLETALNKFNEVIQLAPDFAEGWNKRATIFYLMKKFDRSVNDIAQTLK”, “HMESFGVAIKRLREAQGWTRADFLRQLGKTGYYMHATTLKRIEEGEQIAKVHEAVIISRLFGVTVEEMG” is lower in “soluble fraction (log2)” value: -0.741 for the first, -1.3 for the second.

Going from “HMESGFEAVREVARHGSFANAAKALGVSGPAVSRQVKSLEERLGLVFFHRTTRMVTLTEAGQQLVDTLD” to “HMESGNLIFTNAPIADVVNAIETRYGKKLQASNQTSDLQFTGIFKNTDEFSTVVKTIEIALGLQFEV”, the “soluble fraction (log2)” value falls from -0.211 to -1.37.

Going from “HMESIEAGTFELDNKTSIDISEDEANLLNKMFEELTETNSKDMYGVMVADEAGFNEILEFAKENL” to “HMESNWLTYAKRIQSIADTGMTFAVDDFDKERYQELADISSKMLADLSNIPIGRIENLLGPLGQ”, the “soluble fraction (log2)” value falls from -0.551 to -1.26.

Going from “HMESPVNTLPEDQRAWYKALPPELSTKTAVEAGAGVGVSERTVKRLLSNQTFFINLQRGNYRKRH” to “HMESRMTYLQKTKLATENLDAKLIDHQQWVAEVLGEDYRGVYSDEYLRRAAKVFAIFVNNLDD”, the “soluble fraction (log2)” value falls from 0.314 to -1.41.

“HMESRRVTLLLPYDKAGIADTLRREAAVLSLEYGEDGVTVEAVVKPELWGLVREYVQNDNPK” and “HMESVTETFLTNLINRYIADKAGYIISYPSEYRIEVLYHGGQVLDYENLRKSINTYIPAHIGYKLVTI” are within 0.2 log units of each other in “soluble fraction (log2)” value: -0.319 for the first, -0.158 for the second.

Compared with “HMESYDSEIKEVLDLAGKGRWEEAQTKADALREMAPNNSLVERLHGWVLQAAHQRREQALENDIRE”, “HMESYTEEMLEKMSVSKLRTIARELQVDNMTREQIRFGKKTELIQNILEFTGREIENMQLYDK” is lower in “soluble fraction (log2)” value: 0.101 for the first, -0.357 for the second.

First: HMESYWVVLRPMAAGTQIGANDLGYRSVALGAAAKNYLAASTNPIGSITRRRLVAGELLQGSSLTDDARA
Second: HMETADREILLREIREIINERVDYNKDITDDEMKELVMNTVFERSRQQYMSIQDKQEIIQAIFNSMR
The “soluble fraction (log2)” value of the first is higher: 0.185 for the first, -1.02 for the second.

Compared with “HMETAESLLRRLIMLEDPAMQNAMYVLAVMLERGKQLVERAAKPHESGGILRVYEHKKSGDTFVVLDPR”, “HMETDGGDLTPRERDVLSLIGRGLRNAEAASALGLSEHTIAGHIKSVYSKLGISTRAEAALLASRLGL” is higher in “soluble fraction (log2)” value: -1.05 for the first, -0.261 for the second.

First: HMETGGLAQEAERELALLQEQIAHHEALYRKGTPEISDGAFDELFDRYQELADSLGVPADERIDRA
Second: HMETIHEMVNRLSSEGFIKNEDGIWYLRDRRGDGTKWLKNPFFESTGEKDAFALIDHLKVNDELLSKLRK
The “soluble fraction (log2)” value of the first is lower: -0.836 for the first, -0.433 for the second.

Compared with “HMETINERVNSIIEREGHTVATFAKKIGVPWTTIKNIVSGRNAPSYDIMVKIINAVDWVDANYLVMG”, “HMETKIKFQIQTLDELNIRKVADWDAKAITTVKKGQILDVVDTVAAKNGSTPMYRLESGLYITASPKYVKK” is higher in “soluble fraction (log2)” value: -1.16 for the first, 0.22 for the second.

First: HMETKPTELMLDVHKLRIGMFVYLDLGWMDHPFPLNRFKISTNAQIEQIKGLRLKQVKVMTALSDPASLL
Second: HMETKVIVPKVTGMNSKSAINYLSARGLKYKAVPADSGKSFHVVDQYPKSGTKVSPHSTVYLYS
The “soluble fraction (log2)” value of the first is lower: -0.637 for the first, 0.386 for the second.

First: HMETLKEVPNLKGQQQEVAKQLLINAGLGVGKINIIEDSTIADGEVVTQSILPNTKVKKDTYVGFTVNKAP
Second: HMETLKLRDSGKEVQSLQELLQRQGLSAPMNGIFDEATKSSVIAFQKANGLDADGIVGYKSWETLFTAG
The “soluble fraction (log2)” value of the first is higher: 0.22 for the first, -0.349 for the second.

First: HMETMSGTVKWFNTQKGYGFITGDDGAEYFAHQTQIKMDGFRTLDAGDIVEFDVRSEEKGLAAVNIVP
Second: HMETPDLTQLNPILDEYRGQKGAVIPVLQKAQKIYGFLPPEVLRRIAAGMRVPLSKIYGVATFYSQFY
The “soluble fraction (log2)” value of the first is lower: -0.707 for the first, -0.0265 for the second.

In the case of “HMETQAGELQDAIRDAIAALPPRTREVFLMSRERNLRYGEIAEALGISVKAVEANMSRALRQLREKLSPFL”, the “soluble fraction (log2)” value was 0.108.
